Measured values: article PMC7277169, “C-Methylation of S-adenosyl-L-Methionine Occurs Prior to Cyclopropanation in the Biosynthesis of 1-Amino-2-Methylcyclopropanecarboxylic Acid (Norcoronamic Acid) in a Bacterium” (Biomolecules, 2020)

Tested on: T1, C[S+](CC[C@H](N)C(=O)O)C[C@H]1O[C@@H](n2cnc3c(N)ncnc32)[C@H](O)[C@@H]1O
T1 construct: C-terminal 8xHis tag kept; expressed in Streptomyces lividans TK23; Ni-NTA purified; homodimer
Assay: HPLC-HR-ESI-MS of APDS-derivatized ACC; Michaelis-Menten fit
Format: biochemical, Streptomyces violaceusniger
Conditions: 50 mM sodium phosphate pH 8.0, 30 °C, 60 min, PLP enzyme, unit typeset as 'mm' in text

“rOrf30 (Orf30) (Streptomyces violaceusniger)” gave a Km of 1090 ± 330 µM and a kcat of 0.0049 ± 0.00068 s⁻¹.
